In this assay the target is prefusion-stabilized MERS-CoV S ectodomain trimer (MERS-CoV 2P S) (MERS-CoV) (UniProt K9N5Q8). The experiment in a line: cryo-EM structure.

prefusion-stabilized MERS-CoV S ectodomain trimer (MERS-CoV 2P S), sequence (K9N5Q8 18-1296): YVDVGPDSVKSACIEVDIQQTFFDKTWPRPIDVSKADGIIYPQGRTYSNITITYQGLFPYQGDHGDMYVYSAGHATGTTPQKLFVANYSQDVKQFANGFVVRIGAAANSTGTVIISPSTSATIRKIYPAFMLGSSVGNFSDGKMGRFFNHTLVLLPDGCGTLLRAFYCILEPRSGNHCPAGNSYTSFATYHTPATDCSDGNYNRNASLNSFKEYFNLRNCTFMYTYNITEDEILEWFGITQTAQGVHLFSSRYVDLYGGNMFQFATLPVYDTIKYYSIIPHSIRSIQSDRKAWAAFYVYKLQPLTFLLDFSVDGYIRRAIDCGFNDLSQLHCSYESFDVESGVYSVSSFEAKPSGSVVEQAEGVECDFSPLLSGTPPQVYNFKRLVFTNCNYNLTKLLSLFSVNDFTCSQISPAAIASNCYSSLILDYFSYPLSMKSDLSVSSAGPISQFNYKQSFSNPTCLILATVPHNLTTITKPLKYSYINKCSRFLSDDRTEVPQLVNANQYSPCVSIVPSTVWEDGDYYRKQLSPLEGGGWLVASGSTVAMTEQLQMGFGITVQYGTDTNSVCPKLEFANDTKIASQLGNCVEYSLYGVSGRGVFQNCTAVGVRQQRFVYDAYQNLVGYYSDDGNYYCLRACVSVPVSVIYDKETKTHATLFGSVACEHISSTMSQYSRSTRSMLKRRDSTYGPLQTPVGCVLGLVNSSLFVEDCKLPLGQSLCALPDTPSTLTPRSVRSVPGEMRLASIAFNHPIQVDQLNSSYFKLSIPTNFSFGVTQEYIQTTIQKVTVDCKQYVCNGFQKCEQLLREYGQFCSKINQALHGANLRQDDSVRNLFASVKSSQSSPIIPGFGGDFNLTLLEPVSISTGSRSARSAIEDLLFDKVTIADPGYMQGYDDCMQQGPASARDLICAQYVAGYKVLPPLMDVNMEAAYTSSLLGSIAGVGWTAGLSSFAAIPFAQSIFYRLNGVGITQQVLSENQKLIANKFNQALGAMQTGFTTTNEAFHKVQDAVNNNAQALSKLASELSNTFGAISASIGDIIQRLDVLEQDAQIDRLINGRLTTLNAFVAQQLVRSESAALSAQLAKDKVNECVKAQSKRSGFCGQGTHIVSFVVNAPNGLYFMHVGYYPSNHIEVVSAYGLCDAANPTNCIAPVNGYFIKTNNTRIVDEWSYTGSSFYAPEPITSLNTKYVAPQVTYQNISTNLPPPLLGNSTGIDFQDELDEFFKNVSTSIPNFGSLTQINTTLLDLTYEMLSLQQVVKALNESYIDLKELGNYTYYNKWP

The term stoichiometry N denotes the number of molecules, sites or subunits per partner or assembly. For “prefusion-stabilized MERS-CoV S ectodomain trimer (MERS-CoV 2P S) (from UniProt K9N5Q8 18-1296) (domain or fragment)”, the stoichiometry N stood at 3.

The record behind these values is publication PMC7781312.
